Test system: Escherichia coli TOP10
Test: shrunken log2 fold change of peptide-encoding DNA abundance (4.5 h post-induction vs induction); higher = less antimicrobial activity (less host growth inhibition)
Conditions: time post-induction: 4.5 h; library: site-saturation at positions 5, 18, 19, 20
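Note: peptides expressed intracellularly from a pBAD plasmid library in pooled LB shake-flask culture, induced with 0.3% L-arabinose, DNA abundance read by NGS, three biological replicates, DESeq2 with apeglm shrinkage.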

| Sequence | shrunken log2 fold change |
| --- | --- |
| RRIRKRPPRLPRPRPRPYMCPRP | -0.0998 |
| RRIRKRPPRLPRPRPRPYMDPRP | -0.763 |
| RRIRKRPPRLPRPRPRPYPIPRP | 0.11 |
| RRIRKRPPRLPRPRPRPYQAPRP | 0.134 |
| RRIRKRPPRLPRPRPRPYQVPRP | 0.0805 |
| RRIRKRPPRLPRPRPRPYSAPRP | -0.134 |
| RRIRKRPPRLPRPRPRPYTGPRP | -0.318 |
| RRIRKRPPRLPRPRPRPYTKPRP | -0.138 |
| RRIRKRPPRLPRPRPRPYTRPRP | -0.167 |
| RRIRKRPPRLPRPRPRPYVKPRP | -0.312 |
| RRIRKRPPRLPRPRPRPYVYPRP | -0.154 |
| RRIRKRPPRLPRPRPRPYYHPRP | 0.158 |
| RRIRLRPPRLPRPRPRPACWPRP | 0.498 |
| RRIRLRPPRLPRPRPRPAFQPRP | 0.108 |
| RRIRLRPPRLPRPRPRPAGDPRP | 0.297 |
| RRIRLRPPRLPRPRPRPAGLPRP | 0.102 |
| RRIRLRPPRLPRPRPRPAHHPRP | 0.0653 |
| RRIRLRPPRLPRPRPRPAHPPRP | 0.522 |
| RRIRLRPPRLPRPRPRPAIDPRP | -0.283 |
| RRIRLRPPRLPRPRPRPAIMPRP | -0.16 |
| RRIRLRPPRLPRPRPRPAINPRP | -0.157 |
| RRIRLRPPRLPRPRPRPAKAPRP | 0.271 |
| RRIRLRPPRLPRPRPRPAKWPRP | 0.388 |
| RRIRLRPPRLPRPRPRPAMRPRP | 0.28 |
| RRIRLRPPRLPRPRPRPANFPRP | 0.0302 |

| Sequence | shrunken log2 fold change |
| --- | --- |
| RRIRLRPPRLPRPRPRPANKPRP | -0.0711 |
| RRIRLRPPRLPRPRPRPAPAPRP | 0.512 |
| RRIRLRPPRLPRPRPRPAPWPRP | 0.354 |
| RRIRLRPPRLPRPRPRPAQFPRP | 0.28 |
| RRIRLRPPRLPRPRPRPARQPRP | 0.281 |
| RRIRLRPPRLPRPRPRPASCPRP | 0.117 |
| RRIRLRPPRLPRPRPRPATAPRP | 0.214 |
| RRIRLRPPRLPRPRPRPAVLPRP | -0.0831 |
| RRIRLRPPRLPRPRPRPAVTPRP | -0.0968 |
| RRIRLRPPRLPRPRPRPAWIPRP | 0.0321 |
| RRIRLRPPRLPRPRPRPAWPPRP | 0.42 |
| RRIRLRPPRLPRPRPRPAYDPRP | -0.00456 |
| RRIRLRPPRLPRPRPRPCANPRP | -0.212 |
| RRIRLRPPRLPRPRPRPCCIPRP | -0.0547 |
| RRIRLRPPRLPRPRPRPCCRPRP | 0.0477 |
| RRIRLRPPRLPRPRPRPCDNPRP | -0.161 |
| RRIRLRPPRLPRPRPRPCEFPRP | -0.032 |
| RRIRLRPPRLPRPRPRPCFEPRP | -0.0179 |
| RRIRLRPPRLPRPRPRPCFNPRP | -0.774 |
| RRIRLRPPRLPRPRPRPCGKPRP | -0.196 |
| RRIRLRPPRLPRPRPRPCILPRP | -0.411 |
| RRIRLRPPRLPRPRPRPCKFPRP | -0.463 |
| RRIRLRPPRLPRPRPRPCKVPRP | 0.00893 |
| RRIRLRPPRLPRPRPRPCMYPRP | -0.674 |
| RRIRLRPPRLPRPRPRPCNDPRP | -0.101 |

| Sequence | shrunken log2 fold change |
| --- | --- |
| RRIRLRPPRLPRPRPRPCNPPRP | -0.000687 |
| RRIRLRPPRLPRPRPRPCQKPRP | -0.17 |
| RRIRLRPPRLPRPRPRPCQPPRP | -0.0919 |
| RRIRLRPPRLPRPRPRPCRLPRP | -0.286 |
| RRIRLRPPRLPRPRPRPCRPPRP | -0.0863 |
| RRIRLRPPRLPRPRPRPCSFPRP | -0.051 |
| RRIRLRPPRLPRPRPRPCSKPRP | -0.0788 |
| RRIRLRPPRLPRPRPRPCTCPRP | -0.238 |
| RRIRLRPPRLPRPRPRPCTQPRP | -0.174 |
| RRIRLRPPRLPRPRPRPCTRPRP | -0.0398 |
| RRIRLRPPRLPRPRPRPCTSPRP | -0.114 |
| RRIRLRPPRLPRPRPRPCVAPRP | 0.238 |
| RRIRLRPPRLPRPRPRPCVMPRP | 0.025 |
| RRIRLRPPRLPRPRPRPCVTPRP | -0.498 |
| RRIRLRPPRLPRPRPRPCWGPRP | 0.00437 |
| RRIRLRPPRLPRPRPRPCYFPRP | -0.232 |
| RRIRLRPPRLPRPRPRPDAAPRP | 2.66 |
| RRIRLRPPRLPRPRPRPDADPRP | 1.25 |
| RRIRLRPPRLPRPRPRPDALPRP | -0.354 |
| RRIRLRPPRLPRPRPRPDANPRP | 0.0586 |
| RRIRLRPPRLPRPRPRPDDKPRP | -0.525 |
| RRIRLRPPRLPRPRPRPDEWPRP | -0.0118 |
| RRIRLRPPRLPRPRPRPDFLPRP | -0.181 |
| RRIRLRPPRLPRPRPRPDHFPRP | 0.0304 |
| RRIRLRPPRLPRPRPRPDHLPRP | -0.0674 |
